Laboratory results from US20240252534A1.

Key:
[1] = biological target: Recombinant PSMA-His (sino biologicals) (UniProt Q04609); experiment: SPR, Biacore T200, pH 6; antibody captured on Protein A chip, PSMA-His as analyte, 1:1 Langmuir fit
[2] = biological target: Recombinant PSMA-His (sino biologicals) (UniProt Q04609); experiment: SPR, Biacore T200, pH 7; antibody captured on Protein A chip, PSMA-His as analyte, 1:1 Langmuir fit
[3] = biological target: Recombinant PSMA-His (sino biologicals) (UniProt Q04609); experiment: SPR, Biacore T200, pH 6.5; antibody captured on Protein A chip, PSMA-His as analyte, 1:1 Langmuir fit
[4] = biological target: Recombinant PSMA-His (sino biologicals) (UniProt Q04609); experiment: SPR, Biacore T200, pH 7.4; antibody captured on Protein A chip, PSMA-His as analyte, 1:1 Langmuir fit

Sequence of Recombinant PSMA-His (sino biologicals) (Q04609 44-750 limits assumed): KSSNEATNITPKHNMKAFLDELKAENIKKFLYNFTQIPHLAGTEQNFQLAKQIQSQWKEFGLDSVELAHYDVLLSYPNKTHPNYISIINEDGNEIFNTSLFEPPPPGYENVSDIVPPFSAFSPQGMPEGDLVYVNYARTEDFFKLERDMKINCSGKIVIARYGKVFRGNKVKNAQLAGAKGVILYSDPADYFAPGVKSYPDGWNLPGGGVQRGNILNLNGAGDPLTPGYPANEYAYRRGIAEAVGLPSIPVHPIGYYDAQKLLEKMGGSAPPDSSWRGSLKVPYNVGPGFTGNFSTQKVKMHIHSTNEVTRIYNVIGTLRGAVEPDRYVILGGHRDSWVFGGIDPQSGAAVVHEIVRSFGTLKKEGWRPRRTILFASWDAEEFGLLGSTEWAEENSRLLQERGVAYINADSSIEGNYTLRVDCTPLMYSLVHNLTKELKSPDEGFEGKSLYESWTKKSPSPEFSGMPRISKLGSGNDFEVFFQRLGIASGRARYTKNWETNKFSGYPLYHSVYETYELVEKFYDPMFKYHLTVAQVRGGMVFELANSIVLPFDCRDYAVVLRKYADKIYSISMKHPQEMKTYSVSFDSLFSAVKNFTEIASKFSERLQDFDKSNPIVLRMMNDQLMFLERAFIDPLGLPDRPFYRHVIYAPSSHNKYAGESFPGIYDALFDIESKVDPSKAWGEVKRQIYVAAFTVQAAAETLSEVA

Kd [1]: 0.551 nM
Kd [2]: 2.54 nM
Kd [3]: 0.984 nM
Kd [4]: 2.76 nM
Substance: Anti-PSMA antibody J591 (UPenn)
